Assays:
[1] = target: gp41 17–194 (Env 528 to 705; FPPR to TM, IL replaced by the L6 spacer) (HIV-1 (HXB2 isolate)); experiment: AUC; sedimentation velocity, 20°C; 20 mM sodium phosphate, pH 7, without NaCl, DPC; 1–2 μM protein left soluble
[2] = target: gp41 17–163 (construct H; MPER truncated by 9 C-terminal residues) (HIV-1 (HXB2 isolate)); experiment: AUC; sedimentation velocity, 50,000 rpm, 20°C; 20 mM sodium phosphate, pH 7, 150 mM NaCl, 10 mM DPC (excess of micelles); 10–20 μM protein

“gp41 17–194 (Env 528 to 705; FPPR to TM, IL replaced by the L6 spacer) (domain or fragment)” was tested, and the stoichiometry N [1] was 3.
“gp41 17–163 (construct H; MPER truncated by 9 C-terminal residues) (domain or fragment)” showed a stoichiometry N [2] of 3.

Source: publication PMC4981318
